Publication PMC2813365

Tests used:
PF14_0633 AP2 domain [1] = target: T1, PF14_0633 AP2 domain (Plasmodium falciparum, UniProt Q8IKH2 63-123); assay: size exclusion chromatography
PF14_0633 AP2 domain [2] = target: T1, PF14_0633 AP2 domain; assay: X-ray crystallography

Binder	binding result (PF14_0633 AP2 domain [1])	binding result (PF14_0633 AP2 domain [2])
non-cognate 17bp (dsDNA) DNA 1: TGTGCATAGTGGTGCGA DNA 2: TCGCACCACTATGCACA	binds	
cognate 8bp (dsDNA) DNA 1: TGCATGCA DNA 2: TGCATGCA		binds
